Measured values as given in PMC8616027.

What was measured:
[1] = test system: HU (HU-1/HU-2, hupA + hupB co-expressed) (Escherichia coli); test: EMSA; conditions: 10 min at 23 C, then 0.8% agarose gel electrophoresis, bound [3H]HU counted in gel slices; binding buffer composition, salt and pH not in the material …; scale: HU dimers bound per plasmid at saturation
[2] = test system: HU (HU-1/HU-2, hupA + hupB co-expressed) (Escherichia coli); test: competition; conditions: 10 min at 23 C, then 0.8% agarose gel electrophoresis, bound [3H]HU counted in gel slices; binding buffer composition, salt and pH not in the material …

Substance | binding signal [1] | binding signal (fold affinity over linear DNA) [2] | binding signal (fold affinity over relaxed DNA) [2] | binding signal (fold affinity over relaxed pRLM4) [2]
linear pRLM4 | 1000 | – | – | –
negatively supercoiled pRLM4 (sigma -0.06) | 1000 | 20 | > 10 | 2
